{"source": "paper PMC5122715", "about": "“A Novel, Molybdenum-Containing Methionine Sulfoxide Reductase Supports Survival of Haemophilus influenzae in an In vivo Model of Infection” (Frontiers in Microbiology, 2016)", "test_in_all_cases": "purified protein", "key": {"C[N+](C)(C)[O-]": {"system": "C[N+](C)(C)[O-]", "settings": "0.2 mM benzyl viologen, 0.3 mM dithionite, 20 mM sodium phosphate pH 6.8, 37°C"}, "C[S+](C)[O-]": {"system": "C[S+](C)[O-]", "settings": "0.2 mM benzyl viologen, 0.3 mM dithionite, 20 mM sodium phosphate pH 6.8, 37°C"}, "C[S+]([O-])CCC(N)C(=O)O": {"system": "C[S+]([O-])CCC(N)C(=O)O", "settings": "0.2 mM benzyl viologen, 0.3 mM dithionite, 20 mM sodium phosphate pH 6.8, 37°C, concentration of the whole racemic mixture"}, "[1]": {"system": "O=C(O)CCCC[C@H]1[C@H]2NC(=O)N[C@H]2C[S@+]1[O-]", "settings": "0.2 mM benzyl viologen, 0.3 mM dithionite, 20 mM sodium phosphate pH 6.8, 37°C"}}}
{"substance": "HI rTorZ (TorZ/MtsZ) (Haemophilus influenzae Rd KW20)", "values": [{"measurement": "Km", "setting": "C[N+](C)(C)[O-]", "value": "6700 ± 2000", "unit": "µM"}, {"measurement": "kcat", "setting": "C[N+](C)(C)[O-]", "value": "435 ± 52.1", "unit": "s⁻¹"}, {"measurement": "kcat/Km", "setting": "C[N+](C)(C)[O-]", "value": 64900, "unit": "M⁻¹ s⁻¹"}, {"measurement": "Km", "setting": "C[S+](C)[O-]", "value": "140 ± 50", "unit": "µM"}, {"measurement": "kcat", "setting": "C[S+](C)[O-]", "value": "85.4 ± 9.1", "unit": "s⁻¹"}, {"measurement": "kcat/Km", "setting": "C[S+](C)[O-]", "value": 650000, "unit": "M⁻¹ s⁻¹"}, {"measurement": "Km", "setting": "C[S+]([O-])CCC(N)C(=O)O", "value": "410 ± 80", "unit": "µM"}, {"measurement": "kcat", "setting": "C[S+]([O-])CCC(N)C(=O)O", "value": "91.7 ± 4.4", "unit": "s⁻¹"}, {"measurement": "kcat/Km", "setting": "C[S+]([O-])CCC(N)C(=O)O", "value": 224000, "unit": "M⁻¹ s⁻¹"}, {"measurement": "Km", "setting": "[1]", "value": "1520 ± 280", "unit": "µM"}, {"measurement": "kcat", "setting": "[1]", "value": "183 ± 10.9", "unit": "s⁻¹"}, {"measurement": "kcat/Km", "setting": "[1]", "value": 120000, "unit": "M⁻¹ s⁻¹"}]}
